The values that follow come from the RNAGym collection of RNA variant scans (doi:10.1093/molbev/msab373).

B1: Azoarcus group I ribozyme (parent)
chain: GUGCCUUGCGCCGGGAAACCACGCAAGGGAUGGUGUCAAAUUCGGCGAAACCUAAGCGCCCGCCCGGGCGUAUGGCAACGCCGAGCCAAGCUUCGGCGCCUGCGCCGAUGAAGGUGUAGAGACUAGACGGCACCCACCUAAGGCAAACGCUAUGGUGAAGGCAUAGUCCAGGGAGUGGCGAAAGUCACACAAACCGG

This data set covers variants of B1. In words: reverse-splicing fitness (ratio to wild type); higher = more active; in vitro selection; Mg2+ level not given. Put shortly: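 An in vitro group I ribozyme library with randomized positions was T7-transcribed and gel-purified. In triplicate, 10 pmol RNA in EPPS pH 7.5 was reacted with 50 pmoles of a 30-nt RNA substrate for 1 h at 37 °C across several added MgCl2 levels (1–48 mM), then stopped with EDTA. Products were reverse transcribed from a substrate-complementary primer, PCR-amplified and sequenced (HiSeq 4000). Fitness is a variant's read proportion after selection over that before, normalised to wild type.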
Consider C82A A111C A120G C150G C169A, for which the reverse-splicing fitness worked out at 0.0097.

With A145G C169G U176A, the reverse-splicing fitness was 0.0818. Under C82A A111G A145G stands 0.419; under C82G A145G C150G U176A, 0.0343. To C82U A111G A120G A145G C150A C169A belongs 0.00945; to C82U A111G A120U A145C C150U C169G, 0.00245.

For C82U A111C A145C C150U C169U U176C, the reverse-splicing fitness was 0.00946.

As to C82U A120C A145C C150A U176A, the reverse-splicing fitness was determined as 0.00873.

Regarding A111U A120G A145C C150U C169A U176C, the reverse-splicing fitness was found to be 0.00998. To A111C A120G C150A U176G belongs 0.00592; to A120U, 0.858; to A111U A120G C150U C169A U176G, 0.00517. For C82U A120U A145G C169A U176A, the reverse-splicing fitness turned out to be 0.0025. Turning to C82U A111C A120C C169G U176A, the reverse-splicing fitness was 0.0173.

Consider C82A A111U C150U C169U U176C, for which the reverse-splicing fitness is 0.0146.

For C82U A111G A120U U176C, the reverse-splicing fitness was 0.0192. Under C82A A145C C150U U176A stands 0.101; under C82U A111G A145U C150G C169U U176C, 0.0112; under C82A A120U A145G C169G U176G, 0.00125.

Take C82A A111C A120U A145G C150G C169U U176C: the reverse-splicing fitness is 0.00842. To C82U A120U A145G C150U C169A U176A belongs 0.00476; to A145U C169A U176C, 0.0523. To A111U A120G A145C C150A belongs 0.0115; to A120C U176G, 0.244. To C82A A111U A120U A145U C150A C169A U176G belongs 0.00212; to C82U A111G A120U A145C C150G U176A, 0.0026. In the case of A111U A120C A145G C150A C169G U176G, the reverse-splicing fitness is 0.00488. Take A111C A145U C150U U176A: the reverse-splicing fitness was determined as 0.365. To C82G A120U C150A C169U U176A belongs 0.00396; to C82U A111U A120C A145C C150U U176C, 0.00856.

With A145U C150A, the reverse-splicing fitness came to 0.465. In the case of A120C A145C C150G C169U U176A, the reverse-splicing fitness turned out to be 0.0183.

As for C82G A120U A145C U176G, the reverse-splicing fitness was 0.0211. To A111U A120C A145G C150G C169U U176G belongs 0.00652; to C82G A111U A120U A145G C150A C169U U176A, 0.00402. As for A145U C150A U176C, the reverse-splicing fitness was 0.363. On to A111G A120C A145G C169G U176C, for which the reverse-splicing fitness is 0.0194. On to C82U A120G C150G U176A, for which the reverse-splicing fitness was determined as 0.00577. As for C82G A111C A120U A145C C150A C169G U176C, the reverse-splicing fitness is 0.00286. Under C82U A111C A120U A145U C150U C169A stands 0.00252; under C82U A111C A120U A145U C150U C169G, 0.00301. C82G A111U A120C A145U C150G U176C: the reverse-splicing fitness worked out at 0.00903. To C82U A120G C150G C169U U176C belongs 0.0118; to C82U A120U A145U C150U C169U, 0.00476; to C82A A111U A120U, 0.0228. C82A A111C A120C C150U C169G U176C: the reverse-splicing fitness was found to be 0.016.

Turning to C82G A111C A120U A145U C150G C169U U176G, the reverse-splicing fitness is 0.00234. Regarding C82U A111U A145U C150U, the reverse-splicing fitness was found to be 0.183.

For the variant A120C A145U C150A, the reverse-splicing fitness stood at 0.215. In the case of C82U A120G A145C C150A U176C, the reverse-splicing fitness was found to be 0.0066. On to A111U A120U C150U C169A U176G, for which the reverse-splicing fitness amounted to 0.00214. For the variant C82A A111G A120G A145U C150A C169U U176A, the reverse-splicing fitness was 0.0222. Consider C82G A111G A120U A145C C150A C169G U176A, for which the reverse-splicing fitness stood at 0.00277. Under C82A A111G A145G C150U C169U U176G stands 0.00655; under C82A A120G C150A C169U, 0.0102. Consider A111C A120G A145U C150A C169G U176C, for which the reverse-splicing fitness was 0.0176. C82G A111U A120U A145C C150U C169A U176G: the reverse-splicing fitness came out at 0.00176. To A111U A120U U176C belongs 0.296. To A120G A145G C150G C169U U176G belongs 0.00777.

Take C82U A111U A120C A145U C150A C169U U176A: the reverse-splicing fitness turned out to be 0.0145.

Turning to C82A A111C A120C C169U U176C, the reverse-splicing fitness stood at 0.0149. Regarding C82G A145C, the reverse-splicing fitness stood at 0.45. On to A111C A145C C150A, for which the reverse-splicing fitness was determined as 0.15. To A120U A145G C150U C169A belongs 0.0163. In the case of A120C A145U C150U C169A, the reverse-splicing fitness was 0.0252. Under A111U A120C A145U C169A U176G stands 0.0044; under A120G A145G C150A C169G U176A, 0.0656; under C82G A120U A145U C169A, 0.00221. To A111U A120C A145C C150A C169A belongs 0.00677; to C82G A111C A145G C169U U176C, 0.0148; to C82G C150G C169A, 0.00919. For the variant C82U A111G C150G, the reverse-splicing fitness was 0.0267.

Turning to C82G A111G A120C A145G C150A C169A U176G, the reverse-splicing fitness was determined as 0.00804. To C82G A111C A120U A145G C150U C169A U176C belongs 0.00436; to A111C A120C C150A C169A U176G, 0.00693. Under C82A A111C A120U A145C C169A U176C stands 0.00295; under C82U A120C A145U C150U C169U U176G, 0.00397; under C82U A111U A120G A145U C169U U176C, 0.0132. To C82U A111U C169G U176C belongs 0.0183; to A111C A145U C169U U176A, 0.0258; to A145C C150U C169U U176A, 0.0513.

For the variant C82A A111G A120G A145C C150U C169U, the reverse-splicing fitness amounted to 0.0082. To C82G A120U C150G C169U U176G belongs 0.0022.

On to C82A A145G C150U C169U U176C, for which the reverse-splicing fitness came out at 0.0136.
